The target of test [1] is T1, human calcitonin receptor (human, UniProt P30988 25-474).
T1 construct: whole, on cells; also called hCTR; hCT
T1 sequence (looked up): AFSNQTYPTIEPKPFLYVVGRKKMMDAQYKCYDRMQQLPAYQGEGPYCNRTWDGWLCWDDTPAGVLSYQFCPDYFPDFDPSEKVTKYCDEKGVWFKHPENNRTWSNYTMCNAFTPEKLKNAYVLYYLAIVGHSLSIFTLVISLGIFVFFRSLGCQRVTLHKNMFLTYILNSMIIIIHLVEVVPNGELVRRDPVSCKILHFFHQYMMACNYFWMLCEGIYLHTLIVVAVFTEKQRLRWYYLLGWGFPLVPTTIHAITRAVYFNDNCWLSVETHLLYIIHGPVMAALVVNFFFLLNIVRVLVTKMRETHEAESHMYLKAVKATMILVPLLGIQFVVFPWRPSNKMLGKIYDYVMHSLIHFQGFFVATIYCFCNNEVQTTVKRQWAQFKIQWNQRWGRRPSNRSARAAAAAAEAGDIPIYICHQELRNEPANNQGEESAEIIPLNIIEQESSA
The test can be described thus: SPA radioligand competition (125I-calcitonin), membranes of BHK cells with human calcitonin receptor. The method, boiled down: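 BHK hCTR membranes 35 ng/μL + SPA beads 0.05 mg/well; buffer 50 mM Hepes pH 7.4, 1 mM CaCl2, 5 mM MgCl₂, 0.1% OA, 0.02% Tween20. 120 min, 25° C., shaking. Scintillation count; IC50 by one-site binding competition.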
In general terms: In a radioligand displacement assay an active substance lowers the binding of a labelled ligand.

Test [2] concerns the target T1, human calcitonin receptor. Put plainly: ratio of IC50 at human calcitonin receptor to IC50 at human amylin receptor (SPA competition assays). The method, boiled down: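 IC₅₀ values were derived by one-site competition analysis of SPA counts. Cell membranes (35 ng/μL) with SPA beads were incubated with test compounds for 120 min at 25° C in Hepes buffer, pH 7.4, containing CaCl2, MgCl₂, OA and Tween20.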

For orientation: IC50 means the concentration at which inhibition is half-maximal.

Numbered stars: 1 amine (or outer) side, 2 acyl side, 3 side chain; on linkers, the order of the positions; unused ones are H or OH. Bridge positions count the residues as written; N and C are the ends. Side chains are listed from the residue outwards. Ends that are not written are not given here. * marks the point of attachment. C20 diacid = O=C(O)CCCCCCCCCCCCCCCCCCC(=O)*; γGlu = O=C(O)[C@H](CCC(=O)[*:2])N[*:1]

B1: N^ε1-[(4S)-4-carboxy-4-(19-carboxynonadecanoylamino)butanoyl]-[His14,Arg17,Pro21,Pro27,His34]-h-amylin (peptide)
peptide: K([γGlu-C20 diacid])CNTATCATQRLAHFLRHSSPNFGAIPSSTNVGHNTY-NH2
modifications: disulfide 2-7; N-terminus assumed
SMILES: CC[C@H](C)[C@H](NC(=O)[C@H](C)NC(=O)CNC(=O)[C@H](Cc1ccccc1)NC(=O)[C@H](CC(N)=O)NC(=O)[C@@H]1CCCN1C(=O)[C@H](CO)NC(=O)[C@H](CO)NC(=O)[C@H](Cc1c[nH]cn1)NC(=O)[C@H](CCCNC(=N)N)NC(=O)[C@H](CC(C)C)NC(=O)[C@H](Cc1ccccc1)NC(=O)[C@H](Cc1c[nH]cn1)NC(=O)[C@H](C)NC(=O)[C@H](CC(C)C)NC(=O)[C@H](CCCNC(=N)N)NC(=O)[C@H](CCC(N)=O)NC(=O)[C@@H](NC(=O)[C@H](C)NC(=O)[C@@H]1CSSC[C@H](NC(=O)[C@@H](N)CCCCNC(=O)CC[C@H](NC(=O)CCCCCCCCCCCCCCCCCCC(=O)O)C(=O)O)C(=O)N[C@@H](CC(N)=O)C(=O)N[C@@H]([C@@H](C)O)C(=O)N[C@@H](C)C(=O)N[C@@H]([C@@H](C)O)C(=O)N1)[C@@H](C)O)C(=O)N1CCC[C@H]1C(=O)N[C@@H](CO)C(=O)N[C@@H](CO)C(=O)N[C@H](C(=O)N[C@@H](CC(N)=O)C(=O)N[C@H](C(=O)NCC(=O)N[C@@H](Cc1c[nH]cn1)C(=O)N[C@@H](CC(N)=O)C(=O)N[C@H](C(=O)N[C@@H](Cc1ccc(O)cc1)C(N)=O)[C@@H](C)O)C(C)C)[C@@H](C)O
notes: also called compound 81
With B1, the concentration for half-maximal inhibition (IC50) in test [1] stood at 23.6 nM. For the same molecule, the “Ratio hCT/hAmylin binding” value in test [2] came out at 87.2.

B2: N^ε1-[(4S)-4-carboxy-4-(19-carboxynonadecanoylamino)butanoyl]-[His14,Arg17,Pro21,Pro27,Pro31,Pro34]-h-amylin (peptide)
peptide: K([γGlu-C20 diacid])CNTATCATQRLAHFLRHSSPNFGAIPSSTPVGPNTY-NH2
modifications: disulfide 2-7; N-terminus assumed
SMILES: CC[C@H](C)[C@H](NC(=O)[C@H](C)NC(=O)CNC(=O)[C@H](Cc1ccccc1)NC(=O)[C@H](CC(N)=O)NC(=O)[C@@H]1CCCN1C(=O)[C@H](CO)NC(=O)[C@H](CO)NC(=O)[C@H](Cc1c[nH]cn1)NC(=O)[C@H](CCCNC(=N)N)NC(=O)[C@H](CC(C)C)NC(=O)[C@H](Cc1ccccc1)NC(=O)[C@H](Cc1c[nH]cn1)NC(=O)[C@H](C)NC(=O)[C@H](CC(C)C)NC(=O)[C@H](CCCNC(=N)N)NC(=O)[C@H](CCC(N)=O)NC(=O)[C@@H](NC(=O)[C@H](C)NC(=O)[C@@H]1CSSC[C@H](NC(=O)[C@@H](N)CCCCNC(=O)CC[C@H](NC(=O)CCCCCCCCCCCCCCCCCCC(=O)O)C(=O)O)C(=O)N[C@@H](CC(N)=O)C(=O)N[C@@H]([C@@H](C)O)C(=O)N[C@@H](C)C(=O)N[C@@H]([C@@H](C)O)C(=O)N1)[C@@H](C)O)C(=O)N1CCC[C@H]1C(=O)N[C@@H](CO)C(=O)N[C@@H](CO)C(=O)N[C@H](C(=O)N1CCC[C@H]1C(=O)N[C@H](C(=O)NCC(=O)N1CCC[C@H]1C(=O)N[C@@H](CC(N)=O)C(=O)N[C@H](C(=O)N[C@@H](Cc1ccc(O)cc1)C(N)=O)[C@@H](C)O)C(C)C)[C@@H](C)O
Consider B2, for which the 50% inhibitory concentration (IC50) in test [1] is 2.04 nM. Further, in test [2], the “Ratio hCT/hAmylin binding” value was determined as 24.8.

For the origin of these results see patent publication US20140087995A1 (published 2014).
